B1: Mtb RNAP β subunit (natural protein)
chain: MLEGCILADSRQSKTAASPSPSRPQSSSNNSVPGAPNRVSFAKLREPLEVPGLLDVQTDSFEWLIGSPRWRESAAERGDVNPVGGLEEVLYELSPIEDFSGSMSLSFSDPRFDDVKAPVDECKDKDMTYAAPLFVTAEFINNNTGEIKSQTVFMGDFPMMTEKGTFIINGTERVVVSQLVRSPGVYFDETIDKSTDKTLHSVKVIPSRGAWLEFDVDKRDTVGVRIDRKRRQPVTVLLKALGWTSEQIVERFGFSEIMRSTLEKDNTVGTDEALLDIYRKLRPGEPPTKESAQTLLENLFFKEKRYDLARVGRYKVNKKLGLHVGEPITSSTLTEEDVVATIEYLVRLHEGQTTMTVPGGVEVPVETDDIDHFGNRRLRTVGELIQNQIRVGMSRMERVVRERMTTQDVEAITPQTLINIRPVVAAIKEFFGTSQLSQFMDQNNPLSGLTHKRRLSALGPGGLSRERAGLEVRDVHPSHYGRMCPIETPEGPNIGLIGSLSVYARVNPFGFIETPYRKVVDGVVSDEIVYLTADEEDRHVVAQANSPIDADGRFVEPRVLVRRKAGEVEYVPSSEVDYMDVSPRQMVSVATAMIPFLEHDDANRALMGANMQRQAVPLVRSEAPLVGTGMELRAAIDAGDVVVAEESGVIEEVSADYITVMHDNGTRRTYRMRKFARSNHGTCANQCPIVDAGDRVEAGQVIADGPCTDDGEMALGKNLLVAIMPWEGHNYEDAIILSNRLVEEDVLTSIHIEEHEIDARDTKLGAEEITRDIPNISDEVLADLDERGIVRIGAEVRDGDILVGKVTPKGETELTPEERLLRAIFGEKAREVRDTSLKVPHGESGKVIGIRVFSREDEDELPAGVNELVRVYVAQKRKISDGDKLAGRHGNKGVIGKILPVEDMPFLADGTPVDIILNTHGVPRRMNIGQILETHLGWCAHSGWKVDAAKGVPDWAARLPDELLEAQPNAIVSTPVFDGAQEAELQGLLSCTLPNRDGDVLVDADGKAMLFDGRSGEPFPYPVTVGYMYIMKLHHLVDDKIHARSTGPYSMITQQPLGGKAQFGGQRFGEMECWAMQAYGAAYTLQELLTIKSDDTVGRVKVYEAIVKGENIPEPGIPESFKVLLKELQSLCLNVEVLSSDGAAIELREGEDEDLERAAANLGINLSRNESASVEDLA
B2: Mtb RNAP σ^A (natural protein)
chain: MAATKASTATDEPVKRTATKSPAASASGAKTGAKRTAAKSASGSPPAKRATKPAARSVKPASAPQDTTTSTIPKRKTRAAAKSAAAKAPSARGHATKPRAPKDAQHEAATDPEDALDSVEELDAEPDLDVEPGEDLDLDAADLNLDDLEDDVAPDADDDLDSGDDEDHEDLEAEAAVAPGQTADDDEEIAEPTEKDKASGDFVWDEDESEALRQARKDAELTASADSVRAYLKQIGKVALLNAEEEVELAKRIEAGLYATQLMTELSERGEKLPAAQRRDMMWICRDGDRAKNHLLEANLRLVVSLAKRYTGRGMAFLDLIQEGNLGLIRAVEKFDYTKGYKFSTYATWWIRQAITRAMADQARTIRIPVHMVEVINKLGRIQRELLQDLGREPTPEELAKEMDITPEKVLEIQQYAREPISLDQTIGDEGDSQLGDFIEDSEAVVAVDAVSFTLLQDQLQSVLDTLSEREAGVVRLRFGLTDGQPRTLDEIGQVYGVTRERIRQIESKTMSKLRHPSRSQVLRDYLD
B3: Mtb RNAP α subunit (natural protein)
chain: MLISQRPTLSEDVLTDNRSQFVIEPLEPGFGYTLGNSLRRTLLSSIPGAAVTSIRIDGVLHEFTTVPGVKEDVTEIILNLKSLVVSSEEDEPVTMYLRKQGPGEVTAGDIVPPAGVTVHNPGMHIATLNDKGKLEVELVVERGRGYVPAVQNRASGAEIGRIPVDSIYSPVLKVTYKVDATRVEQRTDFDKLILDVETKNSISPRDALASAGKTLVELFGLARELNVEAEGIEIGPSPAEADHIASFALPIDDLDLTVRSYNCLKREGVHTVGELVARTESDLLDIRNFGQKSIDEVKIKLHQLGLSLKDSPPSFDPSEVAGYDVATGTWSTEGAYDEQDYAETEQL
B4: Mtb GlnR, the nitrogen metabolism regulator (natural protein)
chain: MLELLLLTSELYPDPVLPALSLLPHTVRTAPAEASSLLEAGNADAVLVDARNDLSSGRGLCRLLSSTGRSIPVLAVVSEGGLVAVSADWGLDEILLLSTGPAEIDARLRLVVGRRGDLADQESLGKVSLGELVIDEGTYTARLRGRPLDLTYKEFELLKYLAQHAGRVFTRAQLLHEVWGYDFFGGTRTVDVHVRRLRAKLGPEHEALIGTVRNVGYKAVRPARGRPPAADPDDEDADPGRDGMQEPLVDPLRSQ

Experiments:
[1] = target: T1, Mtb PhoP, phosphorylated with acetyl phosphate (AcP) (Mycobacterium tuberculosis, UniProt P71814 1-247); experiment: […]
[2] = target: B3; experiment: cryo-EM structure
[3] = target: B2; experiment: cryo-EM structure
[4] = target: B1; experiment: cryo-EM structure
[5] = target: T1, Mtb PhoP, phosphorylated with acetyl …; experiment: cryo-EM structure

| Binder | binding result [1] | binding result [2] | binding result [3] | binding result [4] | binding result [5] |
| --- | --- | --- | --- | --- | --- |
| B1 | binds |  |  |  |  |
| B2 | binds |  |  |  |  |
| B3 | binds |  |  |  |  |
| B4 |  | binds | binds | binds | binds |
